Data reported in article PMC11819540, “A new method for the reproducible development of aptamers (Neomers)”.

B1: IL-6-6449 (ssDNA)
DNA: TGTGTATAAGTCGCGAGGTTTGAATGCGAACCATCGGCGCCAACAAAACATTCAAACAGAAATCTACTAGTCAC
modifications: thiol

Biological target: Interleukin 6 (IL-6) (Homo sapiens, UniProt P05231 30-212)
Test: SPRi; SPRi running buffer: 400 mM 6-aminohexanoic acid, 2 mM TETA, 100 mM NaCl, pH 5.7 ± 0.1, 25 °C; aptamers immobilized on gold, protein in flow at 50 µL/min
Details: protein: commercial

Interleukin 6 (IL-6), sequence (P05231 30-212): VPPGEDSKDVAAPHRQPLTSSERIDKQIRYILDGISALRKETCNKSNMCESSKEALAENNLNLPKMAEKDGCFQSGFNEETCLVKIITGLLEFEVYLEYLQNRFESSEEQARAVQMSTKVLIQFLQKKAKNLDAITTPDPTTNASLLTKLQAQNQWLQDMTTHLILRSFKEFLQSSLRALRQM

Binder | Kd [nM]
B1 | 32.1
CAAGAGGGTTGAATTGCAACCATCGGC (ssDNA, thiol) [IL-6-7326.1] | 27
GTCCTGAGGTGTGAATACAAACCATCGG (ssDNA, thiol) [IL-6-4202.1] | 73.2
